Laboratory results as given in the supplement of paper PMC10724198.
± gives the standard deviation of the averaged measurements.

The sequences below were run on Saccharomyces cerevisiae (assay: protein stability index of tFT-peptide fusion (C-terminal peptide) (PSI (0-1 scale)); higher = more stable (slower turnover)). Conditions: genetic background: wild type; temperature: 30 C.
Experimental: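 Multiplexed protein stability (MPS) profiling in S. cerevisiae. Random 12-aa peptides (tFT-X12 library) are fused to the C-terminus of a sfGFP-mCherry tandem fluorescent timer, after mCherry and a GGGS linker. Cells are FACS-sorted into 8 mCherry/sfGFP bins and deep-sequenced. The protein stability index (PSI) is the read-weighted bin average, scaled from 0 (unstable) to 1 (stable). Only peptides with >10 reads are reported; cells were grown at 30 °C in SC-His with glucose.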
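Note: PSI is a weighted mean of sequencing reads over stability bins, variants kept only with over 10 reads, mCherry proximal and sfGFP distal, peptide attached via GGGS linker.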

PHPPCRPYPAGS and GGGARCGLGGRM are within error of each other in protein stability index: 0.701 ± 0.031 for the first, 0.7 ± 0.053 for the second.

KTKKPIILDTSN and HRVVGVTLSVPS are within error of each other in protein stability index: 0.6406 ± 0.0047 for the first, 0.71 ± 0.071 for the second.

DSPTGLKFTQSL and GVLACVEYSRMS are within error of each other in protein stability index: 0.634 ± 0.1 for the first, 0.683 ± 0.0084 for the second.

Compared with PPPPPPPNSHPH, VCGRTHRVLPTY is lower in protein stability index: 0.678 ± 0.021 for the first, 0.641 ± 0.015 for the second.

KKKKNKKNKRKN and SLLPLSTPPASP are within error of each other in protein stability index: 0.613 ± 0.034 for the first, 0.624 ± 0.0079 for the second.

GASCRDCVTRGS and EGTASGSSVRLE are within error of each other in protein stability index: 0.745 ± 0.042 for the first, 0.693 ± 0.049 for the second.

SWSRAAYKGPWG and KIKSEFNMIGKN are within error of each other in protein stability index: 0.702 ± 0.015 for the first, 0.693 ± 0.091 for the second.

PPLRPAADFRTT and IWTRAFAPSNRF are within error of each other in protein stability index: 0.733 ± 0.093 for the first, 0.715 ± 0.02 for the second.

Going from RPGSMWAQGGVG to GLGRRRGVGGVR, the protein stability index rises from 0.566 ± 0.0078 to 0.709 ± 0.0027.

GLCGVVFGGRGE and TATRIPHTPIPL are within error of each other in protein stability index: 0.657 ± 0.064 for the first, 0.732 ± 0.037 for the second.

Compared with GGGVATGGGGGG, PPQGPVAPRKTP is higher in protein stability index: 0.599 ± 0.029 for the first, 0.708 ± 0.018 for the second.

Going from LGVVGYGLGGGK to GCAWGVKYEVIL, the protein stability index falls from 0.707 ± 0.0096 to 0.637 ± 0.05.

SNLRSPFPSLPL and SSVYLRRSCDHD are within error of each other in protein stability index: 0.714 ± 0.022 for the first, 0.699 ± 0.017 for the second.

VGLGAGGTSLMR and VLEKFFFGLAIL are within error of each other in protein stability index: 0.571 for the first, 0.569 ± 0.014 for the second.

First: LPPPSPTPPPPP
Second: WSQDRLFLGFGC
The protein stability index of the first is lower: 0.683 ± 0.019 for the first, 0.875 ± 0.038 for the second.

Compared with PPPPSLPPPLPF, SRRSCTLLSTTW is lower in protein stability index: 0.7844 ± 0.0011 for the first, 0.698 ± 0.022 for the second.

SDDGIRLLNQSF and GTGGRMIRWGLG are within error of each other in protein stability index: 0.59 ± 0.095 for the first, 0.667 ± 0.061 for the second.

EDLFELPNSNFS and GSLLSEERGRYW are within error of each other in protein stability index: 0.73653 ± 0.00022 for the first, 0.75 ± 0.026 for the second.

PPAVDSSPRSRD and ASSFVGLRWWAG are within error of each other in protein stability index: 0.7148 ± 0.0019 for the first, 0.722 ± 0.012 for the second.

LGVGGRWVVPGA and PSELGAGNVMGG are within error of each other in protein stability index: 0.722 ± 0.032 for the first, 0.699 ± 0.027 for the second.

VPPRPAPRLRPP and RLGGRGGRLGAE are within error of each other in protein stability index: 0.695 ± 0.07 for the first, 0.655 ± 0.0068 for the second.

Compared with LLVSVHFSPPLY, ASLHAPPLPPLC is higher in protein stability index: 0.5515 ± 0.0023 for the first, 0.689 ± 0.02 for the second.

QNTTESANWSIT and GSACSLCGLYFN are within error of each other in protein stability index: 0.696 ± 0.052 for the first, 0.709 ± 0.073 for the second.

First: EPLGSGLQCTAG
Second: PPPQHLPPPSLS
The protein stability index of the first is higher: 0.731 ± 0.005 for the first, 0.676 ± 0.019 for the second.

QEPDARYGPGRT and GLFVSLRGLSLS are within error of each other in protein stability index: 0.692 ± 0.12 for the first, 0.71 ± 0.044 for the second.

VVHECIGVYGTV and SGWRCSVAVLQV are within error of each other in protein stability index: 0.634 ± 0.017 for the first, 0.592 ± 0.033 for the second.

RKEEEGNYWNRI and CTAPIASWKRVL are within error of each other in protein stability index: 0.651 ± 0.02 for the first, 0.694 ± 0.029 for the second.

IRRLCGSSRPLP and PVSRSVHIEDKR are within error of each other in protein stability index: 0.708 ± 0.037 for the first, 0.727 ± 0.052 for the second.

FILLFGCFGFFC and LNEVSLLSPAPL are within error of each other in protein stability index: 0.557 ± 0.051 for the first, 0.64 ± 0.057 for the second.

SFGGRMSVPTCC and EGRPEERETTGH are within error of each other in protein stability index: 0.594 ± 0.035 for the first, 0.587 ± 0.057 for the second.

Going from GAGRGKEREYRP to KKKKKKKKQNQK, the protein stability index rises from 0.61356 ± 0.00019 to 0.7 ± 0.03.

VRPLPAPVQPHP and PPSPSPLPPRPL are within error of each other in protein stability index: 0.741 ± 0.019 for the first, 0.717 ± 0.04 for the second.

HPPRVLHGVPSG and SIVSQGISDLGR are within error of each other in protein stability index: 0.629 ± 0.075 for the first, 0.656 ± 0.046 for the second.

First: CRSGSVGGIRGR
Second: RFPPWVSSIFAF
The protein stability index of the first is higher: 0.679 ± 0.011 for the first, 0.494 ± 0.0082 for the second.

Compared with RPSLPPRSPPPS, RCAQKSMALLSD is lower in protein stability index: 0.767 ± 0.069 for the first, 0.68 ± 0.0097 for the second.

Going from VLMSCLFFGIRY to GSILPSGFLSFA, the protein stability index rises from 0.54 ± 0.044 to 0.7472 ± 0.003.

First: RRERRKKTETDK
Second: HAGLLTSSHPGR
The protein stability index of the first is higher: 0.7348 ± 0.0073 for the first, 0.705 ± 0.018 for the second.

SPPLPPLGFNPP and LGGRTWTLVRSG are within error of each other in protein stability index: 0.6414 ± 0.0025 for the first, 0.64 ± 0.033 for the second.

WKYRGVGGVGMG and VCPVIGGGGVGV are within error of each other in protein stability index: 0.745 ± 0.097 for the first, 0.695 ± 0.0077 for the second.

GSDEVGTGWGRL and GRAGGDGVGGGV are within error of each other in protein stability index: 0.669 ± 0.13 for the first, 0.6382 ± 0.0024 for the second.

ARRSAGGAAVPG and QSRERDGSIRNP are within error of each other in protein stability index: 0.624 ± 0.0098 for the first, 0.644 ± 0.021 for the second.

GKTNKALDRISI and MFCRSPSYFPTV are within error of each other in protein stability index: 0.679 ± 0.038 for the first, 0.739 ± 0.035 for the second.

HFPFYPSAPPPF and ERKKIKDKIKKN are within error of each other in protein stability index: 0.713 ± 0.056 for the first, 0.702 ± 0.051 for the second.

RDMCVFSGGSGV and APRPRSPLLPPA are within error of each other in protein stability index: 0.68 ± 0.048 for the first, 0.648 ± 0.019 for the second.

GRRGCSGGLKGL and HTAYPPPHRTPP are within error of each other in protein stability index: 0.675 ± 0.039 for the first, 0.629 ± 0.11 for the second.

Compared with PAAPFFPSLRLL, GFHSVVMTFLRY is lower in protein stability index: 0.711 ± 0.03 for the first, 0.63 ± 0.017 for the second.

PSGLRNAHRHRT and ERGKGSRVGGST are within error of each other in protein stability index: 0.719 ± 0.013 for the first, 0.643 ± 0.1 for the second.

LRRVGKLRESGS and TWVPYIIMKRER are within error of each other in protein stability index: 0.688 ± 0.018 for the first, 0.669 ± 0.019 for the second.

SSPPAPHLAPPP and SSSYCHPSCVSC are within error of each other in protein stability index: 0.703 ± 0.053 for the first, 0.661 ± 0.14 for the second.
